{
  "source": "the DeepSol protein solubility set",
  "data": [
    {"assay": "soluble on expression in E. coli; label from the status in PepcDB or PDB records", "values": [
      {"sequence": "MTITPPTPNGDLHIGHIAGPFLAADVFTRVQRQRGHDCVLVSYSDDYQSYMLRKGLEQGVDPVVLAHRNSDRIEASLAAINIKPDNWMRPHNNPWFAEAVGEVFTALRDAGAIEFRDSSEPYCPDCAVWGYEAFARGQCNYCGAESDASQCENCAQAPDAELMSGLHCKLCQQPSQWKTAHRAFLKLADFKPQLGNRLLGQAWRKPLDSWLRDTLEHLHDWGVTRPGDGGLDLQADGACRVHTWFMGLAGYMAAFREYADSIGRPELFGQYWQSGQGTLVHFLGFDCVFSHAIVYPAQLSVLQGIKVRQRFVPNQFLKLDGLNLSTSRNHAIWVGDLARQACADSARLYLASIAPEDSEGDFRMTHFFEWREELFNGF", "soluble on expression in E. coli": "not soluble"},
      {"sequence": "MTKDQNGTWEMESNENFEGYMKALDIDFATRKIAVRLTQTKIIVQDGDNFKTKTNSTFRNYDLDFTVGVEFDEHTKGLDGRNVKTLVTWEGNTLVCVQKGEKENRGWKQWVEGDKLYLELTCGDQVCRQVFKKK", "soluble on expression in E. coli": "soluble"},
      {"sequence": "MTKEERISRATELFKSGYNCSQSVVAAFADMYGFTEEQALRMAASFGGGIGRMRETCGAACGMFLLAGLEKGAIDGADREGKAANYALVQELAAEFKKRNGSLNCGELLGLKKKAPVSSEPEARTEQYYAKRPCSKMVEEAARIWAEYLEKEKK", "soluble on expression in E. coli": "not soluble"},
      {"sequence": "MTKETTQHRSGERIARFADIEVLSYRADLFGTLTPKQRMLCYHLSEAALRGRDITTIQNCRYNLWVRSLMERIYTHLSKSERTDDFALLEEYLFCIWFANGIHHHYSGAKFIARFSPGFLRAALREAGVELEPEEQVLLERVLYDTDFLPKQTEQSGEEDIIKASSVNFYAPGITRAEAESHYKNLIEALPENEKSCPPSFGLNTRLIRSTSGELKDEVCCIDGLYGPAIEAVVASLEAAIPYTENEEQAACIRLLCDYYRTGDIRLYDRFCIRWVENNRTRIDFINGFTEVYADPIGIHGSWEGLVHMQDEEAGRRTRIISEHAGWFEAHSPIDARFRKKNPHGISATVVNVLTIAGDSYPATPIGINLPNADWIRAEHGSKSVTIDNITDAYNHAARGTGLYEEFIPDEEVRRHVELHADLTDSLHTDLHECLGHGSGQLLPGVPGDALGEHASTLEETRADLFALYFLADPKMIELGLLTDPDAYKANYYKYMLNGLMTQLVRIKRGEEIEEAHMRNRALIARYVLEHAERPGAMSLVCEEGKTALVIKDYEAVRAIIAGLLTEVQRIKSEGDYTAGKALVERYAVHVDPLLHEEVLTRYAKLDIAPYKGFVNPRLRPVYNSEGRLTDATIEYTEGYAEQMLRYSAEYSFLPTDSPLLQEARRLRSHLRRAMDGVLSASMREKGLHYGINFGVTREHLLRLARTADASAPLADYLWRRDVRETKILATMIFPAEELTHEQATRLLREADNVELREQLTANLLERMPEAIRSIGRWIESKETTPDMMTGVLTLAARLFTRGIFPEDVPAEKLLTLAILHLSDEEQKAELRRASALLLKRYGRGSAERTKKVLCLLPESSQDTAPVLYELCEDIRFELDFYPKDE", "soluble on expression in E. coli": "not soluble"},
      {"sequence": "MTKPLDGINVLDFTHVQAGPACTQMMGFLGANVIKIERRGSGDMTRGWLQDKPNVDSLYFTMFNCNKRSIELDMKTPEGKELLEQMIKKADVMVENFGPGALDRMGFTWEYIQELNPRVILASVKGYAEGHANEHLKVYENVAQCSGGAAATTGFWDGPPTVSGAALGDSNSGMHLMIGILAALEIRHKTGRGQKVAVAMQDAVLNLVRIKLRDQQRLERTGILAEYPQAQPNFAFDRDGNPLSFDNITSVPRGGNAGGGGQPGWMLKCKGWETDADSYVYFTIAANMWPQICDMIDKPEWKDDPAYNTFEGRVDKLMDIFSFIETKFADKDKFEVTEWAAQYGIPCGPVMSMKELAHDPSLQKVGTVVEVVDEIRGNHLTVGAPFKFSGFQPEITRAPLLGEHTDEVLKELGLDDAKIKELHAKQVV", "soluble on expression in E. coli": "soluble"},
      {"sequence": "MTKRHVSLPADAKDVRRAFVSGVDERLSAAETPDELATAVTGTLADLRGERDAYEAWRDGDDVRPAAAARLATLDPRNASLESEYYAEKDEAAFARSKPLQWLWRQFDTTPLADNVDVALPFRRMLAGHLFAGVGEDVRLFKGITMTYGHNIELGDNAVVHDGVHLDDRGELVVGARASVSNGAHLYTHDHDVVDQTDVTNYRTEIGADARVTQGALVRAGVRVGENALVGSRSVVQGDVPAHHIAVGSPAESVRVKPGWEAVAAPLDAGLEHHHHHH", "soluble on expression in E. coli": "soluble"},
      {"sequence": "MTKSELMVRLAEVFAAKNGTHLLAKDVEYSVKVLVDTMTRSLARGQRIEIRGFGSFDLNHRPARIGRNPKTGERVEVPEKHVPHFKPGKELRERVDLALKENAN", "soluble on expression in E. coli": "not soluble"},
      {"sequence": "MTKSKIIEIGPLVPAFEEEKIVILFGPTATNELREISVIHEFEAAPQSALSKGNTLQIGDQVYIIEEVGTEANKNLEELGHISIYFRSGQNEVLPGAIVVSPEVFPTLAIGDTIQ", "soluble on expression in E. coli": "not soluble"},
      {"sequence": "MTKTMIRLASEQDAEKLQQLMHEAFTPLRELGIDWPSVNANLDAVKENIDKNTTFVMTIDDEIISTITVRYPWGSVKSISGYPFVWWFATNPEYEGKGYGSQLLTYVEEAFLRDTLKSAAVTLGTSARLHPWLLKIYEKRGYEIYSEHENDDGDLGVIMRKVLIPERFDETILGQPPF", "soluble on expression in E. coli": "not soluble"},
      {"sequence": "MTKVDFWPTLKDAYEPLYPQQLEILRQQVVSEGGPTATIQSRFNYAWGLIKSTDVNDERLGVKILTDIYKEAESRRRECLYYLTIGCYKLGEYSMAKRYVDTLFEHERNNKQVGALKSMVEDKIQKETL", "soluble on expression in E. coli": "soluble"},
      {"sequence": "MTKVTIKAPSDYLQTDWSGGETNQLFLYPEDGDYKKREFSYRLSTATVALRQTTFTRLDGYHRILMSLDKPITLSDLSHAKEISLAPFQPYAFEGDTRIVSRGTCQDINLMYDDQYQGQLLPVWSDTPFEAPKADCQLLYALSKLTYSVTNQANQELEANHLLVTEQEASLSDLKVCLNQTSPAQTPVAVWAGLWYKT", "soluble on expression in E. coli": "not soluble"},
      {"sequence": "MTLDDSSLQKFGFIKRETLGSINIDPLQTGGLLTGAAKQALVEWGDGYSVCDFCGGVLDLVKKPPIHDFVHKALPEFLGCDEARVTNGARESKFAVMHSMGKPGDWVVLDGLAHYSSYVAAERAGLNIEVVPHAGSPEYHLDPGRYGKAIEEVTKENGKPPVLALVTYPDGSYGNIPDAAKIASVCHEYDVPLLLNGAYSVGRMPVSAKEIGADFIVGSGHKSMAASGPVGVLGVSEEYAPVVFRKSVHNKVKEIELLGCTARGATVMTLMASFPEVVKRTRNWDQEVENARWFSSRLEGMGFIQRGQKPHSHDLMFFEAPGFYEISQKVKNGRYFLYRELKERNIHGIKSGLTKYFKLSTFGLGKEKLGTVADAFEDILKKYENI", "soluble on expression in E. coli": "not soluble"},
      {"sequence": "MTLDLFAPQPKTNLLPYDGDVEDYGCFISTAEAEQYFQYFLKHLAWRHDEARLYGKHFITPRQVAWYGDDHYRYAYSGIMRDSLPWDPQLLILKQQIEQTLAERFNSCLANLYQEGTQGMAWHSDGDMSLAKQTTIASLSLGATRKFCFRHLRTKEKIEMQLQSGQLIVMRGETQQHWQHAIMKSQKVIHPRINLTFRQFLLLEHHHHHH", "soluble on expression in E. coli": "not soluble"},
      {"sequence": "MTLGLKDLYYAVCTEADGAESYGTPKKMAEAMSADLSVKTADGSLYADDTLSESVTEFASGTLKLGIKDLTPEVLAELLGQAVDKNSVVWAGKEDEPPYVAVGFRAKKTGGKYRYVWLLKAKFKVPSEKYETKGESIKFNTPDIEASFTTRKKDNLWKADFVGTEESAAAKTWFTAVPEKAAAMESVLEHHHHHH", "soluble on expression in E. coli": "soluble"},
      {"sequence": "MTLLPHLATRLFGVPLAIDRPKLDVILSVLGPRVGLAGLAPPGDYTPPERNPVRGHAQIAVIPIHGTLVRRTVGLEAESGLASYTAIGEQLDAALADPGIAAILLDVDSPGGESGGVFDLADRIRVAAAIKPVWAAANDMAFSAAYALACAASRVFVSRTGGVGSIGVIAMHVDQSVKDAKDGVRYTAVFAGARKNDLNPHEPITDEAQAQLQAEVSRIYRLFVATVGSYRGLSAEAVTATEAGLFFGQDAVAAGLADAVGTFDDALAQLTASLSVPAPVASARTPSLNLQMDCSMNTQPDPAAVSVPAADAIGTTAQPPVVASPPAASVASHTDAVEIAQLCTLAGRTDLIAGFLEARATPERVRSQLLAARAEASPEIASRIDPHAQAVSADASHPASPRNPLLQAVKKRLGIQLEHHHHHH", "soluble on expression in E. coli": "soluble"},
      {"sequence": "MTLNYHAHGKEIEASYRRASDDSDGDKWVIFDYEGNSNTLRVKEEGTGGLEEFADSFSSGKLQFGVISVRLSSDVFPKIVLVHWQGEGVPTLRLASTTPHAEEFRRFLKTVHIVLHARSEIDIEPDAIRKEVRKLPAANANAIVESTYSMPEKVNSVYQPTNAHSELSSEARENFWSTTNQEEKRRQADEKVAHAKQQKQYEADRDRTAAAIHTKAEDFQPEKVNSVYKPTKPHVELKTVKREEFWSKMNEEEKLRQEEEKTAREQAHKQFEADRQRMASEIHSKTENYQPDKVTSVYKPTKPHVEISSSAREEFWSKMNEEEQRRQAEEKEAQAQKQKEFETDRKRIADDLHGKAQISDKPVPSSVNPAPAPAPTPSAGLVGSRKELFSSKPSGPVLPKPQVNGSPKKWPPVGTTSPPREPVNRLTEPDEPSTYTPKPIAYEPEPMVYKPEAMKPAVSYDAYEEPPAEPAPPTFLAPTPVIAPPPPEPTPAPSHYASQYDAPPVHESFEPAVPPVSAPSHYASQYDAPPEPIDSHSSSSQLPAHIASQYDMPPVMPEEPVFAPKSSPIKVAAPPIDQYDFPPAVAEQNAMALWDYQAADDTEISFDPDDIITDIDQVDSGWWKGRAPSGRVGLFPANYVKLI", "soluble on expression in E. coli": "not soluble"},
      {"sequence": "MTLRAARPEFLDLFPAGAEARRLADGFTWTEGPVYVPARSAVIFSDVRQNRTWAWSDDGQLSPEMHPSHHQNGHCLNKQGHLIACSHGLRRLERQREPGGEWESIADSFEGKKLNSPNDVCLAPDGSLWFSDPTYGIDKPEEGYGGEMELPGRWVFRLAPDGTLSAPIRDRVKPNGLAFLPSGNLLVSDTGDNATHRYCLNARGETEYQGVHFTVEPGKTDGLRVDAGGLIWASAGDGVHVLTPDGDELGRVLTPQTTSNLCFGGPEGRTLYMTVSTEFWSIETNVRGLEHHHHHH", "soluble on expression in E. coli": "soluble"},
      {"sequence": "MTLSTINPMKKSRIDNIHHTQILFFSDENQIDQEAPYYDALLDLEKDYPEQIDKMKVYDKKEGWEDEIETVPTLMVVDQRHVVVKIEGCVKKKEDIIKPLQHVLSKLEHHHHHH", "soluble on expression in E. coli": "not soluble"},
      {"sequence": "MTLVSQIEAILFVVGEEGIGLEELAYLLEKSTAKTYEELTKLKEHYASDNKSALNILEVGNHFVLTTKKKYASLLKKYAQSPMSNALSQAALETLSIIAYKQPISRIEIDEIRGVQTSGSIQKLVARQLIEEKGRVDGPGRAILYGTTKYFMDYFGLKSLDELPDIQQMEDELEEELPMDLFFDRYQETNPMSETTEGEEA", "soluble on expression in E. coli": "not soluble"},
      {"sequence": "MTLYIIANPHAGNKNASTIVGKIQELYHTEDISVFYTEQKDDEKKQVINILRSFKESDHLMIIGGDGTLSKVMTYLPQHIPCTYYPVGSGNDFARALKIPNLKETLTAIQTERLKEINCFIYDKGLILNSLDLGFAAYVVWKASNSKIKNILNRYRLGKITYIVIAIKSLLHSSKVQVLVEGETGQQIKLNDLYFFALANNTYFGGGITIWPKASALTAELDMVYAKGHTFLKRLSILLSLVFKRHTTSKSIKHQTFKAMTVYFPKNSLIEIDGEIVELDQISLKCQKRYLYM", "soluble on expression in E. coli": "not soluble"},
      {"sequence": "MTLYPKLILDALATVRYPGTGKNLLEAEMVADNLRIDGMAVSFSLIFEKPTDPFMKSMLKAAETAIHTYVSPDVQVTITTESKQAARPEVGKLLPQVKNIIGISSGKGGVGKSTVSANLAVALAKLGYKVGLLDADIFGPSMPKMFQVEDARPYAEKINGRDLIIPVEKYGVKLLSIGFFVDPDQATLWRGGMASNALKQLIGDADWGDLDYFLIDLPPGTSDIHLTVVQTLAMTGAIVVSTPQAVALADARKGINMFTNDKVNVPILGLVENMAWFTPAELPENKYYIFGKEGAKKLAEEMNVPLLGQIPIVQSICEGGDNGTPVALDEDTVTGRAFLSLAASVVRQVDRRNVEMAPTKIVEMH", "soluble on expression in E. coli": "not soluble"}
    ]}
  ]
}
